Experimental data as given in patent US20220290113.

System: Nme2Cas9 (Neisseria meningitidis)
Test: cell_activity
Conditions: PAM N4CC; HEK293T, TIDE

Sequence	activity [% indels]
GCCUCCCUGCAGGGCUGCUCCC / GCCTCCCTGCAGGGCTGCTCCCCAGCCCAA / TTGGGCTGGGGAGCAGCCCTGCAGGGAGGC [TS6 sgRNA spacer ; TS6 LINC01588 target + PAM]	20
GGAGUCGCCAGAGGCCGGUGGUGG / GGAGTCGCCAGAGGCCGGTGGTGGATTTCCTC / GAGGAAATCCACCACCGGCCTCTGGCGACTCC [TS16 sgRNA spacer ; TS16 LINC01588 target + PAM]	28
GUGUGUCCCUCUCCCCACCCGUCC / GTGTGTCCCTCTCCCCACCCGTCCCTGTCCGG / CCGGACAGGGACGGGTGGGGAGAGGGACACAC [TS47 sgRNA spacer ; TS47 VEGFA target + PAM]	23.1
